According to publication PMC2168396 (The EMBO Journal, 2007):
Substitutions are numbered along the chain they refer to. Numbers in names are those of the source. Ends that are not written are not given here.

B1: talin 2334–2541 (upstream helix deleted) (domain or fragment, mouse, UniProt P26039 2334-2541, looked up)
chain: EADESLNFEEQILEAAKSIAAATSALVKAASAAQRELVAQGKVGAIPANALDDGQWSQGLISAARMVAAATNNLCEAANAAVQGHASQEKLISSAKQVAASTAQLLVACKVKADQDSEAMKRLQAAGNAVKRASDNLVKAAQKAAAFEDQENETVVVKEKMVGGIAQIIAAQEEMLRKERELEEARKKLAQIRQQQYKFLPSELRDEH
B2: talin 2300–2541 (C-terminal actin-binding domain, wild type) (domain or fragment, mouse, UniProt P26039 2300-2541, looked up)
chain: DPTVIAENELLGAAAAIEAAAKKLEQLKPRAKPKEADESLNFEEQILEAAKSIAAATSALVKAASAAQRELVAQGKVGAIPANALDDGQWSQGLISAARMVAAATNNLCEAANAAVQGHASQEKLISSAKQVAASTAQLLVACKVKADQDSEAMKRLQAAGNAVKRASDNLVKAAQKAAAFEDQENETVVVKEKMVGGIAQIIAAQEEMLRKERELEEARKKLAQIRQQQYKFLPSELRDEH
B3: talin 2300–2541 K2443D (domain or fragment, mouse, UniProt P26039 2300-2541, looked up)
chain: B2 chain with K144D
B4: talin 2300–2541 R2510A (domain or fragment, mouse, UniProt P26039 2300-2541, looked up)
chain: B2 chain with R211A
B5: talin 2300–2541 L2309A/L2323A (domain or fragment, mouse, UniProt P26039 2300-2541, looked up)
chain: B2 chain with L10A, L24A
B6: talin 2300–2541 D2447N (domain or fragment, mouse, UniProt P26039 2300-2541, looked up)
chain: B2 chain with D148N
B7: talin 2300–2541 I2316A/L2323A (domain or fragment, mouse, UniProt P26039 2300-2541, looked up)
chain: B2 chain with I17A, L24A
B8: talin 2300–2541 V2376D (domain or fragment, mouse, UniProt P26039 2300-2541, looked up)
chain: B2 chain with V77D
B9: talin 2300–2541 R2513A (domain or fragment, mouse, UniProt P26039 2300-2541, looked up)
chain: B2 chain with R214A
B10: talin 2300–2541 L2309A (domain or fragment, mouse, UniProt P26039 2300-2541, looked up)
chain: B2 chain with L10A
B11: talin 2300–2541 V2444D (domain or fragment, mouse, UniProt P26039 2300-2541, looked up)
chain: B2 chain with V145D
B12: talin 2300–2541 D2385K/D2386N (domain or fragment, mouse, UniProt P26039 2300-2541, looked up)
chain: B2 chain with D86K, D87N
B13: talin 2300–2541 Q2437E (domain or fragment, mouse, UniProt P26039 2300-2541, looked up)
chain: B2 chain with Q138E
B14: talin 2300–2541 I2316A (domain or fragment, mouse, UniProt P26039 2300-2541, looked up)
chain: B2 chain with I17A
B15: talin 2300–2541 Q2388R (domain or fragment, mouse, UniProt P26039 2300-2541, looked up)
chain: B2 chain with Q89R
B16: talin 2300–2541 Q2388D (domain or fragment, mouse, UniProt P26039 2300-2541, looked up)
chain: B2 chain with Q89D
B17: talin 2300–2541 K2443D/V2444D/K2445D (domain or fragment, mouse, UniProt P26039 2300-2541, looked up)
chain: B2 chain with K144D, V145D, K146D
B18: talin 2300–2541 D2385K/D2386N/D2447N (domain or fragment, mouse, UniProt P26039 2300-2541, looked up)
chain: B2 chain with D86K, D87N, D148N
B19: talin 2300–2541 L2323A (domain or fragment, mouse, UniProt P26039 2300-2541, looked up)
chain: B2 chain with L24A
B20: talin 2300–2541 K2445D (domain or fragment, mouse, UniProt P26039 2300-2541, looked up)
chain: B2 chain with K146D
B21: talin 2300–2541 L2515D (domain or fragment)
chain: B2 chain with L216D
B22: talin 2300–2541 L2515D/A2518D (domain or fragment)
chain: B2 chain with L216D, A219D
B23: talin 2300–2541 R2519A (domain or fragment)
chain: B2 chain with R220A
B24: talin 2300–2541 R2526A (domain or fragment)
chain: B2 chain with R227A
B25: talin 2300–2541 A2518D (domain or fragment)
chain: B2 chain with A219D
B26: talin 2300–2541 R2526G (domain or fragment)
chain: B2 chain with R227G

Molecular target: the molecule itself
Experiment: crystal structure

| Binder | binding result |
| --- | --- |
| MVGGIAQIIAAQEEMLRKERELEEARKKLAQIRQQQYKFLPSELRDEH (domain or fragment, mouse, UniProt P26039 2494-2541, looked up, also: selenomethionine in derivative used for phasing) [talin 2494–2541 (dimerisation domain)] | binds |

Molecular target: the molecule itself
Experiment: SEC + other: NMR

| Binder | stoichiometry N |
| --- | --- |
| B1 | 2 |
| B2 | 2 |
| B3 | 2 |
| B4 | 2 |
| B5 | 2 |
| B6 | 2 |
| B7 | 2 |
| B8 | 2 |
| B9 | 2 |
| B10 | 2 |
| B11 | 2 |
| B12 | 2 |
| B13 | 2 |
| B14 | 2 |
| B15 | 2 |
| B16 | 2 |
| B17 | 2 |
| B18 | 2 |
| B19 | 2 |
| B20 | 2 |

Molecular target: filamentous actin (F-actin) from rabbit skeletal muscle (rabbit, UniProt P68135 1-377)
Experiment: co-sedimentation

| co-sedimentation pellet (% of WT) | Binder |
| --- | --- |
| 262 ± 18 % of WT | B1 |
| 100 ± 3 % of WT | B2 |
| 43 ± 5 % of WT | B3 |
| 77 ± 5 % of WT | B4 |
| 154 ± 7 % of WT | B5 |
| 36 ± 6 % of WT | B21 |
| 42 ± 7 % of WT | B22 |
| 144 ± 8 % of WT | B6 |
| 37 ± 3 % of WT | B23 |
| 135 ± 13 % of WT | B7 |
| 95 ± 5 % of WT | B8 |
| 66 ± 14 % of WT | B9 |
| 113 ± 3 % of WT | B10 |
| 54 ± 10 % of WT | B11 |
| 113 ± 13 % of WT | B12 |
| 62 ± 13 % of WT | B13 |
| 37 ± 9 % of WT | B24 |
| 96 ± 9 % of WT | B14 |
| 102 ± 9 % of WT | B15 |
| 43 ± 10 % of WT | B25 |
| 59 ± 5 % of WT | B16 |
| 33 ± 5 % of WT | B26 |
| 27 ± 6 % of WT | B17 |
| 138 ± 16 % of WT | B18 |
| 127 ± 3 % of WT | B19 |
| 48 ± 10 % of WT | B20 |
